According to patent US20140087991A1, “PEPTIDE PRODRUGS” (The Johns Hopkins University, priority 2006, published 2014):
Peptide text beside a SMILES is read from it.

Key:
FAP [1] = target: T1, FAP (Homo sapiens, UniProt Q12884); test: FAP dipeptidyl peptidase assay; type: biochemical
T1 construct: the extracellular domain of FAP was cloned with a His-6 tag; made in house
T1 sequence (Q12884 26-760 limits assumed): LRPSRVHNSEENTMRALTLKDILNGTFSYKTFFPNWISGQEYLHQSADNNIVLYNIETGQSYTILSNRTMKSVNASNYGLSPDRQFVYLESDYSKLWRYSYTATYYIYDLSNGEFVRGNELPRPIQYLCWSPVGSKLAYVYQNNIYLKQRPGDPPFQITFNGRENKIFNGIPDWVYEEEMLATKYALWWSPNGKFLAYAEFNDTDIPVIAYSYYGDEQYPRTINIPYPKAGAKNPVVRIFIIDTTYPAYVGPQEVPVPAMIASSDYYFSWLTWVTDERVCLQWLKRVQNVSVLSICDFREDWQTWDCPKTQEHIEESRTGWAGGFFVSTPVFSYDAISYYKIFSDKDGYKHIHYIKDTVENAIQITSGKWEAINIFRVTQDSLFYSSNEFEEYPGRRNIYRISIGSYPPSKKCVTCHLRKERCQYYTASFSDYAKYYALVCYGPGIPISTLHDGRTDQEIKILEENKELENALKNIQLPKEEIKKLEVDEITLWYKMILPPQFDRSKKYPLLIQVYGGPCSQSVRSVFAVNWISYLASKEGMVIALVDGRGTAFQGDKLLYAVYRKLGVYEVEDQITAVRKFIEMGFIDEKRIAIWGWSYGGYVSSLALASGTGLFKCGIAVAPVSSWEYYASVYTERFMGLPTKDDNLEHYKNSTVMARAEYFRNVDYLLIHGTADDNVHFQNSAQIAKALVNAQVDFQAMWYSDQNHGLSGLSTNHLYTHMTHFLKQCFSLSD
Description: Quantitative assay for dipeptidyl peptidase activity were developed using Ala-Pro-AFC as the substrate as described by Park et al^18. Purified protein was mixed with 5-10-fold volumes of reaction buffer (100 mM NaCl, 100 mM Tris, pH 7.8), and added to an equal volume of 0.5 mM Ala-Pro-AFC in reaction buffer followed by incubation for 1 h at 37° C. Release of free AFC was measured in a DTX 880 Multimode Detector (Beckman, Fullerton, Calif.) using the 395 nm excitation/530 nm emission filter set.

all cell lines tested = test: Cytotoxicity, average IC50 over cell lines; type: cell-based
FAP [2] = target: T1, FAP; test: FAP gelatinase and collagenase assay with quenched (DQ) proteins; type: biochemical; conditions: 100 μgs/ml protein substrate
Description: Quenched gelatin and collagen conjugates were used to detect and confirm FAP's gelatinase and collagenase activity. DQ™ Gelatin from pig skin, DQ™ collagen, type IV from human placenta, DQ™ collagen, type I from bovine skin, all as fluorescent conjugates (Invitrogen, Rockville, Md.) were digested with FAP and digestion monitored on a fluorescence plate reader. Protein substrates were dissolved in reaction buffer (100 mM NaCl, 100 mM Tris, pH 7.8) to a final concentration of 100 μgs/ml. Trypsin digestion was used as a positive control. As a negative control the His tagged extra cellular domain of Prostate Specific Membrane Antigen (PSMA), which was similarly purified from S2 cells under the same conditions as FAP. Fluorescent quenched DQ™ Bovine Serum Albumin was used as a negative control for FAP protease activity.
Quenched forms of Gelatin and Collagen were used to confirm the gelatinase and collagenase activity of recombinant FAP. Quenching is achieved by labeling these proteins with the fluorophore FITC such that fluorescence signal from the intact protein is minimal due to is self-quenching by the fluorphore. Protein digestion releases FITC-labeled fragments that result in measurable increase in overall fluorescence signal from the reaction mixture. […] On a relative basis gelatin was digested ˜10-fold better by FAP than collagen I. MALDI analysis of digested fragments was performed to confirm hydrolysis.

FAP [3] = target: T2, FAP (Homo sapiens, UniProt Q12884); conditions: previously demonstrated; cited from earlier work
T2 sequence (Q12884 1-760): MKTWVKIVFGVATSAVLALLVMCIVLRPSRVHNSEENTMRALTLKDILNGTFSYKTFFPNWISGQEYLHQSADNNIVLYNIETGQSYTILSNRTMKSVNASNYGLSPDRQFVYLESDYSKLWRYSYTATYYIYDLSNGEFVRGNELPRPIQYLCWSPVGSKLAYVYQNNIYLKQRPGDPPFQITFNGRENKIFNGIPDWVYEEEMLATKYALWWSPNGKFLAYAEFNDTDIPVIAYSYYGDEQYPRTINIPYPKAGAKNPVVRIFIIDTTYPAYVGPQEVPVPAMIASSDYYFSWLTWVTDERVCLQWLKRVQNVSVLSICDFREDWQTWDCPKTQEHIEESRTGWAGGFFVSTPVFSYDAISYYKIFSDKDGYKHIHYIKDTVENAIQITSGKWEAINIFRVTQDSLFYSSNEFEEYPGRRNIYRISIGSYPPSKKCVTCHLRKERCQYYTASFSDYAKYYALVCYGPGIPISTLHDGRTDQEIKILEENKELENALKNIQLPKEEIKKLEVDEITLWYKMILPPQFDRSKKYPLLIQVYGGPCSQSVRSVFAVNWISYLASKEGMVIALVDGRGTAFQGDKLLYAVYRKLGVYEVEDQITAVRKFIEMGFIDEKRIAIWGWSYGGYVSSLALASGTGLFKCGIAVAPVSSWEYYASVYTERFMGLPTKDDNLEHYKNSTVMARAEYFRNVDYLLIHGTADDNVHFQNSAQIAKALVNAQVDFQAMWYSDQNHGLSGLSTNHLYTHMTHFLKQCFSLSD

FAP [4] = target: T1, FAP; test: Digestion of human collagen I and recombinant gelatins with FAP (SDS-PAGE, MALDI); type: biochemical; conditions: SDS PAGE and MALDI spectra
Description: Human collagen I (Becton Dickinson, Franklin Lakes, N.J.) and recombinant human gelatins of 100 KDa and 8.5 KDa (Fibrogen, San Francisco, Calif.) were dissolved in reaction buffer to a final concentration of 100-300 μg/ml. 0.5-1 μg of FAP was added per 100 μgs of protein substrate. Digestion was done for 4-6 hrs at 37° C. As a positive control trypsin digestion was used. As a negative control, protein solutions were incubated either with BSA or buffer only. Peptide fragments of a size <30 KDa were purified using 30 KDa Microcon spin filter (Millipore, Billerica, Mass.).
In an effort to elucidate the substrate specificity of FAP, we examined FAP digests of unlabeled human Collagen I using matrix assisted laser desorption ionization (MALDI) time of flight mass spectrometry. Digestion reactions were performed at a substrate to protease mass ratio of 200:1 using recombinant FAP or modified trypsin as a control. Two negative controls of Collagen alone and FAP alone were also included to identify any peptides due to autolysis/degradation of these proteins. […]
As Collagen I and Gelatin are currently the only known protein substrates for FAP, we developed an alternative method to identify FAP-selective cleavage sites within these proteins. […] The masses of fragments <3 KDa were purified for MALDI spectra and again analyzed using the FindPept tool. […]

hydrolysis of FITC-quenched protein by FAP (FAP [2]) | Compound | IC50 (all cell lines tested) | cleavage by FAP (FAP [3]) | also measured
readily hydrolyzed | Collagen I: FITC-quenched DQ collagen I from bovine skin; in b297 Collagen I of the cited literature | – | could cleave | –
not all digested | Collagen IV: FITC-quenched DQ collagen IV from human placenta; in b297 Collagen IV of the cited literature | – | not | –

Further lines, the compound ahead of its results:

Compound | hydrolysis of FITC-quenched protein by FAP (FAP [2]) | IC50 (all cell lines tested) | cleavage by FAP (FAP [3]) | also measured
C[C@H](N)C(=O)N1CCC[C@H]1C(=O)Nc1ccc2c(C(F)(F)F)cc(=O)oc2c1 [Ala-Pro-AFC] (HELM PEPTIDE1{A.P.[O=c1cc(C(F)(F)F)c2ccc(N[*:1])cc2o1]}$$$$V2.0) | – | – | – | cleavage of dipeptide substrate by purified FAP (FAP [1]): same kinetic parameters as previously described
CC(=O)O[C@H]1C(=O)[C@@]2(C)[C@H]([C@H](OC(=O)c3ccccc3)[C@]3(O)C[C@H](OC(=O)[C@H](O)[C@@H](NC(=O)c4ccccc4)c4ccccc4)C(C)=C1C3(C)C)[C@]1(OC(C)=O)CO[C@@H]1C[C@@H]2O [paclitaxel] | – | 10 nM | – | –
C/C=C(/C)C(=O)O[C@H]1C(C)=C2[C@H]([C@@H]1OC(=O)CCCCCCC)[C@@](C)(OC(C)=O)C[C@H](OC(=O)CCC)[C@@]1(O)[C@H]2OC(=O)[C@@]1(C)O [thapsigargin] | – | 0.1 nM | – | –
human Collagen I: unlabeled human collagen I (Becton Dickinson) | – | – | – | digestion by FAP (FAP [4]): cleaved by FAP at certain specific sites
